Tests used:
Type in all cases: cell-based
[1] = test system: human epidermal keratinocytes; assay: Cell proliferation and differentiation of engineered human epidermal cells in vitro
Protocol: (§1) Primary human neonatal epidermal keratinocytes were obtained from Thermo Fischer® (C0015C), and cultured with Epilife® medium (Thermo Fischer, M-EPICF-500) with manufacturer's recommended procedures. Calcium shift was performed to induce differentiation of primary keratinocytes by increasing the calcium concentration in culture media to 1.5 mM.
(§2) Propidium iodide (PI) staining followed by flow cytometry were used to determine the effect of cell cycle profiles. Mouse and human epidermal cells were cultured in two 6 cm cell culture dish for 24 hours, respectively. Cells were trypsinized, and 1×10^5 cells from each dish were collected, followed by one PBS wash. […] After staining, the cells were analyzed immediately using flow cytometer BD FACSCanto™ II (BD Biosciences, San Jose, CA) with an excitation wavelength at 488 nm and emission at 585 nm. DNA content and histograms of cell cycle distribution were analyzed using FlowJo™ software, version 10 (FLOWJO LLC, OR).
(§3) Western blotting was performed as described previously (Blanpain et al.). […] Visualization and quantification was carried out with the LI-COR Odyssey® scanner and software (LI-COR Biosciences).
(§4) Propidium iodide (PI) staining followed by flow cytometry were used to determine the effect of cell cycle profiles. […] DNA content and histograms of cell cycle distribution were analyzed using FlowJo™ software, version 10 (FLOWJO LLC, OR). […]

[2] = test system: mouse epidermal stem cells; assay: Cell proliferation and differentiation of engineered mouse epidermal cells in vitro (cell cycle FACS, calcium shift western blot)
Protocol: as §1, §2, §3, §4

human epidermal cells = assay: Secretion of GLP1 in culture medium by ELISA (human epidermal cells); conditions: engineered human epidermal cells, doxycycline
Excerpt: To examine CRISPR-mediated genome editing in human epidermal cells, vectors encoding two gRNAs targeting human AAVS1 (adeno-associated virus integration site 1) locus, and an AAVS1-targeting vector (FIG. 16A) that harbors a tetracycline-inducible expression cassette encoding the GLP-1 and IgG-Fc fragment fusion protein were used. […] Clones were isolated and correct integration confirmed by southern blotting analysis (FIG. 13D).

## GLP1
[1]
  effect of expression on cell proliferation / differentiation in vitro: did not significantly change cell proliferation
[2]
  effect of expression on cell proliferation / differentiation in vitro: did not significantly change cell proliferation
Human epidermal cells
  GLP1 production: strong GLP1 production upon dose-dependent stimulation with doxycycline

From patent US20230392126A1, “TISSUE ORGANOIDS” (priority 2016, published 2023)
